Measured values: the supplement of paper PMC9112550, “Optimization of the antimicrobial peptide Bac7 by deep mutational scanning” (BMC Biology, 2022)

Test system: Escherichia coli TOP10
Test: shrunken log2 fold change of peptide-encoding DNA abundance (4.5 h post-induction vs induction); higher = less antimicrobial activity (less host growth inhibition)
Conditions: time post-induction: 4.5 h; library: site-saturation at positions 5, 18, 19, 20
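Further: peptides expressed intracellularly from a pBAD plasmid library in pooled LB shake-flask culture, induced with 0.3% L-arabinose, DNA abundance read by NGS, three biological replicates, DESeq2 with apeglm shrinkage.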

## RRIRSRPPRLPRPRPRPRFYPRP
  shrunken log2 fold change: -0.642

## RRIRSRPPRLPRPRPRPRGHPRP
  shrunken log2 fold change: -0.0222

## RRIRSRPPRLPRPRPRPRGLPRP
  shrunken log2 fold change: 0.461

## RRIRSRPPRLPRPRPRPRGRPRP
  shrunken log2 fold change: 0.375

## RRIRSRPPRLPRPRPRPRKPPRP
  shrunken log2 fold change: 0.0197

## RRIRSRPPRLPRPRPRPRPCPRP
  shrunken log2 fold change: 0.137

## RRIRSRPPRLPRPRPRPRPRPRP
  shrunken log2 fold change: 0.815

## RRIRSRPPRLPRPRPRPRQFPRP
  shrunken log2 fold change: 0.165

## RRIRSRPPRLPRPRPRPRQQPRP
  shrunken log2 fold change: 0.0352

## RRIRSRPPRLPRPRPRPRSCPRP
  shrunken log2 fold change: 0.108

## RRIRSRPPRLPRPRPRPRSRPRP
  shrunken log2 fold change: 0.0341

## RRIRSRPPRLPRPRPRPRVDPRP
  shrunken log2 fold change: 0.0568

## RRIRSRPPRLPRPRPRPRVGPRP
  shrunken log2 fold change: 0.578

## RRIRSRPPRLPRPRPRPRWCPRP
  shrunken log2 fold change: 0.051

## RRIRSRPPRLPRPRPRPRWVPRP
  shrunken log2 fold change: 0.218

## RRIRSRPPRLPRPRPRPRYSPRP
  shrunken log2 fold change: -0.232

## RRIRSRPPRLPRPRPRPRYWPRP
  shrunken log2 fold change: 0.0181

## RRIRSRPPRLPRPRPRPSAPPRP
  shrunken log2 fold change: 0.287

## RRIRSRPPRLPRPRPRPSCMPRP
  shrunken log2 fold change: -0.129

## RRIRSRPPRLPRPRPRPSCRPRP
  shrunken log2 fold change: -0.0379

## RRIRSRPPRLPRPRPRPSDLPRP
  shrunken log2 fold change: -0.254

## RRIRSRPPRLPRPRPRPSDPPRP
  shrunken log2 fold change: -0.397

## RRIRSRPPRLPRPRPRPSECPRP
  shrunken log2 fold change: -0.211

## RRIRSRPPRLPRPRPRPSEIPRP
  shrunken log2 fold change: 0.0398

## RRIRSRPPRLPRPRPRPSEWPRP
  shrunken log2 fold change: 0.0157

## RRIRSRPPRLPRPRPRPSFFPRP
  shrunken log2 fold change: -0.211

## RRIRSRPPRLPRPRPRPSGYPRP
  shrunken log2 fold change: -0.443

## RRIRSRPPRLPRPRPRPSHWPRP
  shrunken log2 fold change: 0.337

## RRIRSRPPRLPRPRPRPSILPRP
  shrunken log2 fold change: -0.235

## RRIRSRPPRLPRPRPRPSINPRP
  shrunken log2 fold change: -0.567

## RRIRSRPPRLPRPRPRPSIQPRP
  shrunken log2 fold change: -0.497

## RRIRSRPPRLPRPRPRPSKKPRP
  shrunken log2 fold change: -0.334

## RRIRSRPPRLPRPRPRPSLKPRP
  shrunken log2 fold change: 0.0541

## RRIRSRPPRLPRPRPRPSMCPRP
  shrunken log2 fold change: -0.146

## RRIRSRPPRLPRPRPRPSNGPRP
  shrunken log2 fold change: -0.0205

## RRIRSRPPRLPRPRPRPSPDPRP
  shrunken log2 fold change: -0.218

## RRIRSRPPRLPRPRPRPSPGPRP
  shrunken log2 fold change: 0.312

## RRIRSRPPRLPRPRPRPSPVPRP
  shrunken log2 fold change: -0.0362

## RRIRSRPPRLPRPRPRPSQTPRP
  shrunken log2 fold change: -0.128

## RRIRSRPPRLPRPRPRPSRIPRP
  shrunken log2 fold change: -0.106

## RRIRSRPPRLPRPRPRPSRSPRP
  shrunken log2 fold change: 0.179

## RRIRSRPPRLPRPRPRPSSIPRP
  shrunken log2 fold change: -0.379

## RRIRSRPPRLPRPRPRPSVHPRP
  shrunken log2 fold change: -0.352

## RRIRSRPPRLPRPRPRPSVTPRP
  shrunken log2 fold change: -0.171

## RRIRSRPPRLPRPRPRPSYYPRP
  shrunken log2 fold change: -0.529

## RRIRSRPPRLPRPRPRPTAKPRP
  shrunken log2 fold change: 0.528

## RRIRSRPPRLPRPRPRPTCAPRP
  shrunken log2 fold change: 0.301

## RRIRSRPPRLPRPRPRPTCFPRP
  shrunken log2 fold change: 0.284

## RRIRSRPPRLPRPRPRPTCTPRP
  shrunken log2 fold change: 0.342

## RRIRSRPPRLPRPRPRPTDMPRP
  shrunken log2 fold change: 0.0156

## RRIRSRPPRLPRPRPRPTDNPRP
  shrunken log2 fold change: -0.249

## RRIRSRPPRLPRPRPRPTDVPRP
  shrunken log2 fold change: 0.0781

## RRIRSRPPRLPRPRPRPTEPPRP
  shrunken log2 fold change: 0.161

## RRIRSRPPRLPRPRPRPTEVPRP
  shrunken log2 fold change: -0.125

## RRIRSRPPRLPRPRPRPTFEPRP
  shrunken log2 fold change: 0.0262

## RRIRSRPPRLPRPRPRPTFLPRP
  shrunken log2 fold change: -0.0423

## RRIRSRPPRLPRPRPRPTGSPRP
  shrunken log2 fold change: 0.0396

## RRIRSRPPRLPRPRPRPTKLPRP
  shrunken log2 fold change: 0.0448

## RRIRSRPPRLPRPRPRPTLHPRP
  shrunken log2 fold change: 0.147

## RRIRSRPPRLPRPRPRPTLNPRP
  shrunken log2 fold change: -0.0269

## RRIRSRPPRLPRPRPRPTLPPRP
  shrunken log2 fold change: 0.212

## RRIRSRPPRLPRPRPRPTNEPRP
  shrunken log2 fold change: 0.308

## RRIRSRPPRLPRPRPRPTNGPRP
  shrunken log2 fold change: 0.0899

## RRIRSRPPRLPRPRPRPTNVPRP
  shrunken log2 fold change: -0.358

## RRIRSRPPRLPRPRPRPTPAPRP
  shrunken log2 fold change: 0.299

## RRIRSRPPRLPRPRPRPTQCPRP
  shrunken log2 fold change: 0.23

## RRIRSRPPRLPRPRPRPTSRPRP
  shrunken log2 fold change: -0.0504

## RRIRSRPPRLPRPRPRPTTAPRP
  shrunken log2 fold change: 0.155

## RRIRSRPPRLPRPRPRPTVQPRP
  shrunken log2 fold change: -0.204

## RRIRSRPPRLPRPRPRPTVSPRP
  shrunken log2 fold change: -0.221

## RRIRSRPPRLPRPRPRPTVWPRP
  shrunken log2 fold change: 0.185

## RRIRSRPPRLPRPRPRPTWVPRP
  shrunken log2 fold change: 0.0759

## RRIRSRPPRLPRPRPRPTWYPRP
  shrunken log2 fold change: -0.123

## RRIRSRPPRLPRPRPRPTYLPRP
  shrunken log2 fold change: -0.399

## RRIRSRPPRLPRPRPRPTYNPRP
  shrunken log2 fold change: -0.765

## RRIRSRPPRLPRPRPRPVAGPRP
  shrunken log2 fold change: 0.0927

## RRIRSRPPRLPRPRPRPVCGPRP
  shrunken log2 fold change: 0.548

## RRIRSRPPRLPRPRPRPVDRPRP
  shrunken log2 fold change: 0.0715

## RRIRSRPPRLPRPRPRPVDTPRP
  shrunken log2 fold change: -0.103

## RRIRSRPPRLPRPRPRPVEQPRP
  shrunken log2 fold change: -0.0605

## RRIRSRPPRLPRPRPRPVFKPRP
  shrunken log2 fold change: -0.29

## RRIRSRPPRLPRPRPRPVFLPRP
  shrunken log2 fold change: -0.131

## RRIRSRPPRLPRPRPRPVFTPRP
  shrunken log2 fold change: 0.00672

## RRIRSRPPRLPRPRPRPVGGPRP
  shrunken log2 fold change: 0.433

## RRIRSRPPRLPRPRPRPVGHPRP
  shrunken log2 fold change: -0.376

## RRIRSRPPRLPRPRPRPVGRPRP
  shrunken log2 fold change: 0.65

## RRIRSRPPRLPRPRPRPVGTPRP
  shrunken log2 fold change: -0.0487

## RRIRSRPPRLPRPRPRPVGVPRP
  shrunken log2 fold change: 0.0685

## RRIRSRPPRLPRPRPRPVIEPRP
  shrunken log2 fold change: -0.186

## RRIRSRPPRLPRPRPRPVIHPRP
  shrunken log2 fold change: -0.127

## RRIRSRPPRLPRPRPRPVIMPRP
  shrunken log2 fold change: -0.36

## RRIRSRPPRLPRPRPRPVKHPRP
  shrunken log2 fold change: 0.124

## RRIRSRPPRLPRPRPRPVMDPRP
  shrunken log2 fold change: -0.496

## RRIRSRPPRLPRPRPRPVMPPRP
  shrunken log2 fold change: -0.103

## RRIRSRPPRLPRPRPRPVNQPRP
  shrunken log2 fold change: -0.155

## RRIRSRPPRLPRPRPRPVNVPRP
  shrunken log2 fold change: -0.156

## RRIRSRPPRLPRPRPRPVRDPRP
  shrunken log2 fold change: 0.369

## RRIRSRPPRLPRPRPRPVSEPRP
  shrunken log2 fold change: -0.125

## RRIRSRPPRLPRPRPRPVVIPRP
  shrunken log2 fold change: -0.429

## RRIRSRPPRLPRPRPRPVWCPRP
  shrunken log2 fold change: 0.143

## RRIRSRPPRLPRPRPRPVWQPRP
  shrunken log2 fold change: 0.168

## RRIRSRPPRLPRPRPRPVYFPRP
  shrunken log2 fold change: -0.347

## RRIRSRPPRLPRPRPRPVYGPRP
  shrunken log2 fold change: -0.355

## RRIRSRPPRLPRPRPRPWAHPRP
  shrunken log2 fold change: -0.186

## RRIRSRPPRLPRPRPRPWCPPRP
  shrunken log2 fold change: -0.549

## RRIRSRPPRLPRPRPRPWCWPRP
  shrunken log2 fold change: 0.0877

## RRIRSRPPRLPRPRPRPWEKPRP
  shrunken log2 fold change: -0.01

## RRIRSRPPRLPRPRPRPWGRPRP
  shrunken log2 fold change: 0.196

## RRIRSRPPRLPRPRPRPWIMPRP
  shrunken log2 fold change: -0.572

## RRIRSRPPRLPRPRPRPWLAPRP
  shrunken log2 fold change: 0.166

## RRIRSRPPRLPRPRPRPWLVPRP
  shrunken log2 fold change: 0.0191

## RRIRSRPPRLPRPRPRPWMCPRP
  shrunken log2 fold change: -0.391

## RRIRSRPPRLPRPRPRPWMLPRP
  shrunken log2 fold change: -0.14

## RRIRSRPPRLPRPRPRPWNCPRP
  shrunken log2 fold change: -0.223

## RRIRSRPPRLPRPRPRPWNKPRP
  shrunken log2 fold change: -0.0158

## RRIRSRPPRLPRPRPRPWNMPRP
  shrunken log2 fold change: -0.077

## RRIRSRPPRLPRPRPRPWPVPRP
  shrunken log2 fold change: 0.12

## RRIRSRPPRLPRPRPRPWRPPRP
  shrunken log2 fold change: 0.0563

## RRIRSRPPRLPRPRPRPWRQPRP
  shrunken log2 fold change: 0.11

## RRIRSRPPRLPRPRPRPWRTPRP
  shrunken log2 fold change: 0.311

## RRIRSRPPRLPRPRPRPWSAPRP
  shrunken log2 fold change: -0.027

## RRIRSRPPRLPRPRPRPWSKPRP
  shrunken log2 fold change: -0.405

## RRIRSRPPRLPRPRPRPWSYPRP
  shrunken log2 fold change: 0.0308

## RRIRSRPPRLPRPRPRPWTEPRP
  shrunken log2 fold change: -0.314

## RRIRSRPPRLPRPRPRPWVAPRP
  shrunken log2 fold change: 0.0561

## RRIRSRPPRLPRPRPRPWWKPRP
  shrunken log2 fold change: -0.0475

## RRIRSRPPRLPRPRPRPWYDPRP
  shrunken log2 fold change: -0.511

## RRIRSRPPRLPRPRPRPWYKPRP
  shrunken log2 fold change: -0.137

## RRIRSRPPRLPRPRPRPWYMPRP
  shrunken log2 fold change: -0.262

## RRIRSRPPRLPRPRPRPYAAPRP
  shrunken log2 fold change: -0.0585

## RRIRSRPPRLPRPRPRPYALPRP
  shrunken log2 fold change: -0.613

## RRIRSRPPRLPRPRPRPYCDPRP
  shrunken log2 fold change: -0.225

## RRIRSRPPRLPRPRPRPYCIPRP
  shrunken log2 fold change: -0.26

## RRIRSRPPRLPRPRPRPYCWPRP
  shrunken log2 fold change: -0.419

## RRIRSRPPRLPRPRPRPYDGPRP
  shrunken log2 fold change: -0.203

## RRIRSRPPRLPRPRPRPYGVPRP
  shrunken log2 fold change: 0.0325

## RRIRSRPPRLPRPRPRPYHIPRP
  shrunken log2 fold change: -0.845

## RRIRSRPPRLPRPRPRPYHWPRP
  shrunken log2 fold change: -0.479

## RRIRSRPPRLPRPRPRPYIFPRP
  shrunken log2 fold change: -0.683

## RRIRSRPPRLPRPRPRPYKDPRP
  shrunken log2 fold change: -0.716

## RRIRSRPPRLPRPRPRPYKKPRP
  shrunken log2 fold change: -0.0605

## RRIRSRPPRLPRPRPRPYLQPRP
  shrunken log2 fold change: -0.176

## RRIRSRPPRLPRPRPRPYLWPRP
  shrunken log2 fold change: -0.0115

## RRIRSRPPRLPRPRPRPYMCPRP
  shrunken log2 fold change: -0.903

## RRIRSRPPRLPRPRPRPYNSPRP
  shrunken log2 fold change: -0.287

## RRIRSRPPRLPRPRPRPYPQPRP
  shrunken log2 fold change: -0.267

## RRIRSRPPRLPRPRPRPYQLPRP
  shrunken log2 fold change: -0.149

## RRIRSRPPRLPRPRPRPYRAPRP
  shrunken log2 fold change: -0.019

## RRIRSRPPRLPRPRPRPYSCPRP
  shrunken log2 fold change: -0.386

## RRIRSRPPRLPRPRPRPYSMPRP
  shrunken log2 fold change: -0.721
